Data on ten substances can be found in publication PMC13389011.

“And” between values parts separate entries of the source, which are not always exact repeats. Equal entries are not always repeated.

Data set [1] relates to Human insulin receptor ectodomain (HIR) (Homo sapiens), P06213-2+P06213-2. Kind of data set: ELONA. As to conditions: DNA backbone, PBS (1.5 mM KH2PO4, 8.1 mM Na2HPO4, 2.7 mM KCl, 137 mM NaCl) with 5 mM MgCl2, pH 7.4, MST with 0.1% Pluronic F-127 at 25 C, FNBA at room temperature, high values mean tight binding.
Data set [2] shares this test system. In words: MST. The conditions noted are these: DNA backbone, PBS (1.5 mM KH2PO4, 8.1 mM Na2HPO4, 2.7 mM KCl, 137 mM NaCl) with 5 mM MgCl2, pH 7.4, MST with 0.1% Pluronic F-127 at 25 C, FNBA at room temperature, high values mean tight binding.
Data set [3] deals with T1, Dog insulin receptor ectodomain (DIR) (dog) (UniProt A0A8I3PWD4+A0A8I3PWD4). In words: ELONA. As to conditions: DNA backbone; 7-deaza-7-(indolyl-ethyl)-dA (dAAIn) at 27,28,32,33,35,39,48,51; 5-(phenyl-ethynyl)-dU (dUEPh) at 24,25,26,31,40,42,44,46,49,52,54; PBS (1.5 mM KH2PO4, 8.1 mM Na2HPO4, 2.7 mM KCl, 137 mM NaCl) with 5 mM MgCl2, pH 7.4; MST with 0.1% Pluronic F-127 at 25 C; FNBA at room temperature; high values mean tight binding.

Data set [4] addresses T2, Cat insulin receptor ectodomain (CIR) (cat) (UniProt A0ABI7YJR5+A0ABI7YJR5). Kind of data set: ELONA. The conditions noted are these: DNA backbone; 7-deaza-7-(indolyl-ethyl)-dA (dAAIn) at 27,28,32,33,35,39,48,51; 5-(phenyl-ethynyl)-dU (dUEPh) at 24,25,26,31,40,42,44,46,49,52,54; PBS (1.5 mM KH2PO4, 8.1 mM Na2HPO4, 2.7 mM KCl, 137 mM NaCl) with 5 mM MgCl2, pH 7.4; MST with 0.1% Pluronic F-127 at 25 C; FNBA at room temperature; high values mean tight binding.

The subject of data set [5] is Human insulin receptor ectodomain (HIR) (Homo sapiens), P06213-2. In words: SPR. The conditions noted are these: after primer nt 1-20 every U = rigidly linked phenyl-dU and every A = flexibly linked indole-dA (nucleotides 1,2); DNA backbone; IB: PBS (1.5 mM KH2PO4, 8.1 mM Na2HPO4, 2.7 mM KCl, 137 mM NaCl) + 5 mM MgCl2, pH 7.4; MST +0.1% Pluronic F-127, 25 C; SPR 25 C; FNBA and BLI r.t.

For data set [6], the system named is Human insulin receptor isoform A, native (IM-9 cells) (Homo sapiens), P06213-2+P06213-2. In words: competition with 125I-insulin. The conditions noted are these: after primer nt 1-20 every U = rigidly linked phenyl-dU and every A = flexibly linked indole-dA (nucleotides 1,2); DNA backbone; IB: PBS (1.5 mM KH2PO4, 8.1 mM Na2HPO4, 2.7 mM KCl, 137 mM NaCl) + 5 mM MgCl2, pH 7.4; MST +0.1% Pluronic F-127, 25 C; SPR 25 C; FNBA and BLI r.t.

Data set [7] has as its system Human insulin receptor ectodomain (HIR) (Homo sapiens), P06213-2. In words: MST. The conditions noted are these: IB: PBS (1.5 mM KH2PO4, 8.1 mM Na2HPO4, 2.7 mM KCl, 137 mM NaCl) + 5 mM MgCl2, pH 7.4, MST +0.1% Pluronic F-127, 25 C, SPR 25 C, FNBA and BLI r.t.
Data set [8] addresses T1, Dog insulin receptor ectodomain (DIR) (dog). In words: MST. The conditions noted are these: DNA backbone; 7-deaza-7-(indolyl-ethyl)-dA (dAAIn) at 27,28,32,33,35,39,48,51; 5-(phenyl-ethynyl)-dU (dUEPh) at 24,25,26,31,40,42,44,46,49,52,54; PBS (1.5 mM KH2PO4, 8.1 mM Na2HPO4, 2.7 mM KCl, 137 mM NaCl) with 5 mM MgCl2, pH 7.4; MST with 0.1% Pluronic F-127 at 25 C; FNBA at room temperature; high values mean tight binding.

In data set [9] the target is Human IGF-1R ectodomain (Homo sapiens) (UniProt P08069+P08069). In words: MST. As to conditions: DNA backbone; 7-deaza-7-(indolyl-ethyl)-dA (dAAIn) at 27,28,32,33,35,39,48,51; 5-(phenyl-ethynyl)-dU (dUEPh) at 24,25,26,31,40,42,44,46,49,52,54; PBS (1.5 mM KH2PO4, 8.1 mM Na2HPO4, 2.7 mM KCl, 137 mM NaCl) with 5 mM MgCl2, pH 7.4; MST with 0.1% Pluronic F-127 at 25 C; FNBA at room temperature; high values mean tight binding.

The target of data set [10] is T2, Cat insulin receptor ectodomain (CIR) (cat). Kind of data set: MST. The conditions noted are these: DNA backbone; 7-deaza-7-(indolyl-ethyl)-dA (dAAIn) at 27,28,32,33,35,39,48,51; 5-(phenyl-ethynyl)-dU (dUEPh) at 24,25,26,31,40,42,44,46,49,52,54; PBS (1.5 mM KH2PO4, 8.1 mM Na2HPO4, 2.7 mM KCl, 137 mM NaCl) with 5 mM MgCl2, pH 7.4; MST with 0.1% Pluronic F-127 at 25 C; FNBA at room temperature; high values mean tight binding.

The test system of data set [11] is Human insulin receptor ectodomain (HIR) (Homo sapiens), P06213-2. Kind of data set: BLI. The conditions noted are these: after primer nt 1-20 every U = rigidly linked phenyl-dU and every A = flexibly linked indole-dA (nucleotides 1,2); DNA backbone; IB: PBS (1.5 mM KH2PO4, 8.1 mM Na2HPO4, 2.7 mM KCl, 137 mM NaCl) + 5 mM MgCl2, pH 7.4; MST +0.1% Pluronic F-127, 25 C; SPR 25 C; FNBA and BLI r.t.

Data set [12] deals with Insulin (Homo sapiens) (UniProt P01308). In words: radioligand binding. The conditions noted are these: cited from earlier work.
Data set [13] deals with Dog insulin receptor ectodomain (DIR) (dog) (UniProt A0A8I3PWD4). Kind of data set: MST. The conditions noted are these: phenyl-dU (rigid) and indole-dA (flexible) after nt 20; IB: PBS (1.5 mM KH2PO4, 8.1 mM Na2HPO4, 2.7 mM KCl, 137 mM NaCl) + 5 mM MgCl2, pH 7.4; MST +0.1% Pluronic F-127, 25 C; SPR 25 C; FNBA and BLI r.t.
Where [14] appears, read: 7-deaza-7-(indolyl-ethyl)-dA (dAAIn) at 27,35,36,38,41,44,48,54, 5-(phenyl-ethynyl)-dU (dUEPh) at 21,22,23,32,33,37,40,45,46,50,53.
The mark [15] stands for this setting: 7-deaza-7-(indolyl-ethyl)-dA (dAAIn) at 27,28,32,33,35,39,48,51, 5-(phenyl-ethynyl)-dU (dUEPh) at 24,25,26,31,40,42,44,46,49,52,54.
Setting [16] is: 7-deaza-7-(indolyl-ethynyl)-dA (dAEIn) at 27,28,32,33,35,39,48,51, 5-(phenyl-ethynyl)-dU (dUEPh) at 24,25,26,31,40,42,44,46,49,52,54.
Where [17] appears, read: 7-deaza-7-(phenyl-ethyl)-dA (dAAPh) at 27,28,32,33,35,39,48,51, 5-(phenyl-ethynyl)-dU (dUEPh) at 24,25,26,31,40,42,44,46,49,52,54.
Where [18] appears, read: 7-deaza-7-(indolyl-ethynyl)-dA (dAEIn) at 27,28,32,33,35,39,48,51, 5-(phenyl-ethyl)-dU (dUAPh) at 24,25,26,31,40,42,44,46,49,52,54.
Setting [19] is: 7-deaza-7-(indolyl-ethyl)-dA (dAAIn) at 27,28,32,33,35,39,48,51, 5-(phenyl-ethyl)-dU (dUAPh) at 24,25,26,31,40,42,44,46,49,52,54.

Chain of Human insulin receptor ectodomain (HIR) (Homo sapiens), P06213-2+P06213-2 (P06213 other isoform, or with tags, fused parts or gaps, chain 1 of 2): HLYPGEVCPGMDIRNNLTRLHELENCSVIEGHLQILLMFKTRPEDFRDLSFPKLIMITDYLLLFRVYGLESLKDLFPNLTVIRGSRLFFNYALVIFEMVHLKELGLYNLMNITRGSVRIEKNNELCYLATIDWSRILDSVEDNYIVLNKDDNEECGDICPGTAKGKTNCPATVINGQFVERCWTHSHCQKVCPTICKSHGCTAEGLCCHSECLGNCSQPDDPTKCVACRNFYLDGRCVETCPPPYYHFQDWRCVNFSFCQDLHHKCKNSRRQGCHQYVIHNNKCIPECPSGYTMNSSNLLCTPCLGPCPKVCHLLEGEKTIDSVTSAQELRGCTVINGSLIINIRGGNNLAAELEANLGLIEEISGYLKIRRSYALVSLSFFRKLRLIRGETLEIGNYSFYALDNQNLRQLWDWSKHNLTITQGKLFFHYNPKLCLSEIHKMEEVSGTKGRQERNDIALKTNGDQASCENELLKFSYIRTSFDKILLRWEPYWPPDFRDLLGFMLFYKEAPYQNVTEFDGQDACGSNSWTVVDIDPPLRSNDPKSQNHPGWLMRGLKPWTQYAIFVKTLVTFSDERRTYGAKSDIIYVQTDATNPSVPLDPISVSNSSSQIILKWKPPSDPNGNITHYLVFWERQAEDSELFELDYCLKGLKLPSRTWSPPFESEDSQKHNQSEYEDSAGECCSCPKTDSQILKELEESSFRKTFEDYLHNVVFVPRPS
Chain of Human insulin receptor ectodomain (HIR) (Homo sapiens), P06213-2+P06213-2 (P06213 763-956, chain 2 of 2): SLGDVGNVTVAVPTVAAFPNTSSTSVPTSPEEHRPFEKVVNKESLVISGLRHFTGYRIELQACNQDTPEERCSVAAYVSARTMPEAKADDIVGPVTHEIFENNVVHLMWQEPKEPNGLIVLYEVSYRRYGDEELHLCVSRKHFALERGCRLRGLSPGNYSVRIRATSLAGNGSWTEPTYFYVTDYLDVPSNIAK
Chain of Human insulin receptor ectodomain (HIR) (Homo sapiens), P06213-2 (P06213 other isoform, or with tags, fused parts or gaps): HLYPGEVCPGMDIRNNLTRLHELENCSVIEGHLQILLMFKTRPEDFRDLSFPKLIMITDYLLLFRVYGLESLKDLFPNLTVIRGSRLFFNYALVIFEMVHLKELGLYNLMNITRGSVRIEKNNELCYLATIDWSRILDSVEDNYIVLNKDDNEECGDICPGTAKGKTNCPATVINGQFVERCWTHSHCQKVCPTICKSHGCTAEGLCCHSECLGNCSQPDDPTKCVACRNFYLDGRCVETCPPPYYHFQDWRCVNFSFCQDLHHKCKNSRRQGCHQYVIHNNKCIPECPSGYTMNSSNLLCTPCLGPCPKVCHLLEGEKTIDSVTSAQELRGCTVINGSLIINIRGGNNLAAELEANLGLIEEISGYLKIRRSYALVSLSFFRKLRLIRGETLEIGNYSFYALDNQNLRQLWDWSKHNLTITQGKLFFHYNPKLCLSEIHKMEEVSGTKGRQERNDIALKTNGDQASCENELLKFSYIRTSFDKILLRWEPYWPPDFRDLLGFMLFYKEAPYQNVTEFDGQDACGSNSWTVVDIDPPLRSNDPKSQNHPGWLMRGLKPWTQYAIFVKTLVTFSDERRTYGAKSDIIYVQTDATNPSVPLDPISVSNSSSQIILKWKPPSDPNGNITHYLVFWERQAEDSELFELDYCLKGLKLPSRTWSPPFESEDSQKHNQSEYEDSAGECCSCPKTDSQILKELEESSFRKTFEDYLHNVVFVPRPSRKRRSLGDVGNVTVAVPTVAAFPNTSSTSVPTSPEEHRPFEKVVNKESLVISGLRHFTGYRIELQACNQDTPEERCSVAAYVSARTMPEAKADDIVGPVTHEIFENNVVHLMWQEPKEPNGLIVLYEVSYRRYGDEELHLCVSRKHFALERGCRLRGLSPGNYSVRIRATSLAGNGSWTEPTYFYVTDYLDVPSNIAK
T2 sequence (chain, as listed by the source, chain 1 of 2): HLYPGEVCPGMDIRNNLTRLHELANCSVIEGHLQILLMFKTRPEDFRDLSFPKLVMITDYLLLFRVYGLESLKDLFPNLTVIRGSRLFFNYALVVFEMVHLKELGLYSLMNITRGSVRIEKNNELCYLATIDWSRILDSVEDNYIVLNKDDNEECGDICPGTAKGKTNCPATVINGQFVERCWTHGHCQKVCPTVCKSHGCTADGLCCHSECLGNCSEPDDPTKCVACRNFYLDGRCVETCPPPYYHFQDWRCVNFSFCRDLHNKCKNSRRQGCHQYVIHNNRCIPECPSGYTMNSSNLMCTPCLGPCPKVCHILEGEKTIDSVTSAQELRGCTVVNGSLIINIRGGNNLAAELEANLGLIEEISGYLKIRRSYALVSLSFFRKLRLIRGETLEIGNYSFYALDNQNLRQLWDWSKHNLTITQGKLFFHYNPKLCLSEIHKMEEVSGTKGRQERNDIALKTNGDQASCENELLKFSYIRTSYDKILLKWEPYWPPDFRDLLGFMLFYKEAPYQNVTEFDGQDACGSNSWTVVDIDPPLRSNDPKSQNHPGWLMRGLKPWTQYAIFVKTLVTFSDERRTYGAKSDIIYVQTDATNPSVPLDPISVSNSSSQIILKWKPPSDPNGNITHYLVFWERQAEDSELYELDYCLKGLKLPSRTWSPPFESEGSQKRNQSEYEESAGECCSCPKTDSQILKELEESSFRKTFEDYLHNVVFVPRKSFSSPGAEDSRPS
T2 sequence (chain, as listed by the source, chain 2 of 2): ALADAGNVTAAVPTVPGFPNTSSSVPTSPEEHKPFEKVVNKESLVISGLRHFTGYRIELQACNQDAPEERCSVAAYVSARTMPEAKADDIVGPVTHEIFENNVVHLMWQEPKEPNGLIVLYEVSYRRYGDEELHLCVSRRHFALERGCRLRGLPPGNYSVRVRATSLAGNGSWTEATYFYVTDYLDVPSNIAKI
T1 sequence (chain, as listed by the source, chain 1 of 2): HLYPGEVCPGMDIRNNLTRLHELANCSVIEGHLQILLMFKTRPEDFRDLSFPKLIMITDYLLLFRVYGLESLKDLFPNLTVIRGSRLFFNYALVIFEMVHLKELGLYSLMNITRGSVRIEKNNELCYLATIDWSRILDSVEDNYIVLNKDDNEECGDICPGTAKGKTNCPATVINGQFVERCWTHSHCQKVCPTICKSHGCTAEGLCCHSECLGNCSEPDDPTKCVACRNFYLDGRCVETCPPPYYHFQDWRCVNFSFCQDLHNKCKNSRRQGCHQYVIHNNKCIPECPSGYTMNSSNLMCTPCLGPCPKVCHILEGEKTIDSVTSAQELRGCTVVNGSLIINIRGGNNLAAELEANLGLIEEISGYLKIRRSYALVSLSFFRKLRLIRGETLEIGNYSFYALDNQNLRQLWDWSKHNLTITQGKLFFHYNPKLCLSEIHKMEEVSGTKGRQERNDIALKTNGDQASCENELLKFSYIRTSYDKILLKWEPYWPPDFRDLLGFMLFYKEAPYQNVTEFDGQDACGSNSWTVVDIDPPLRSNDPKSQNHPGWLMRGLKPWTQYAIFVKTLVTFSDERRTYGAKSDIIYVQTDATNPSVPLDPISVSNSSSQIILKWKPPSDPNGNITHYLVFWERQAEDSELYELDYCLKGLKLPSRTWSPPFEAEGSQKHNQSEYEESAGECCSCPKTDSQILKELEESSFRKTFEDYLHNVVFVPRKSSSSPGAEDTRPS
T1 sequence (chain, as listed by the source, chain 2 of 2): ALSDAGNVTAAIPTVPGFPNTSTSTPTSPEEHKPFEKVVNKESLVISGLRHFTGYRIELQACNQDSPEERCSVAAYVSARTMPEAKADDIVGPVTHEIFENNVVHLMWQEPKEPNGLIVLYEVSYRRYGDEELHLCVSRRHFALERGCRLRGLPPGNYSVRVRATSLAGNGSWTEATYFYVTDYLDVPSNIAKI
Chain of Human insulin receptor isoform A, native (IM-9 cells) (Homo sapiens), P06213-2+P06213-2 (P06213 other isoform, or with tags, fused parts or gaps, chain 1 of 2): as the sequence (P06213 other isoform, or with tags, fused parts or gaps, chain 1 of 2) above
Chain of Human insulin receptor isoform A, native (IM-9 cells) (Homo sapiens), P06213-2+P06213-2 (P06213 763-1382, chain 2 of 2): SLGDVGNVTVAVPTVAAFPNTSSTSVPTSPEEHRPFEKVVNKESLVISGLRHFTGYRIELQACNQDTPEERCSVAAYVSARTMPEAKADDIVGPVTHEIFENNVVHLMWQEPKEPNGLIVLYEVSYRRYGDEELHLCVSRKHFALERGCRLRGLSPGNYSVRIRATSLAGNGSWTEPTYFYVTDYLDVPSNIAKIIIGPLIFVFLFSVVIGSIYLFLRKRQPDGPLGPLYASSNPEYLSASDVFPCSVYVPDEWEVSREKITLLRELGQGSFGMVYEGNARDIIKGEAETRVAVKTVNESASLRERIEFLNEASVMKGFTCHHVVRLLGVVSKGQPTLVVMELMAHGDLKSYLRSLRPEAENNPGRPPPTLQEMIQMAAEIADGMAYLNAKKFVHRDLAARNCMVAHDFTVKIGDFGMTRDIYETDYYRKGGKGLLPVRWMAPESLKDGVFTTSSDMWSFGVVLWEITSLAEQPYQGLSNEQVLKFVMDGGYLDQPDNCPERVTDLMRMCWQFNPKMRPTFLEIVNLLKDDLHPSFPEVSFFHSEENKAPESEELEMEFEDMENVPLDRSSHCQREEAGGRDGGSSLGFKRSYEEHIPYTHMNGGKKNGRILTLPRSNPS
Chain of Insulin (Homo sapiens) (P01308 90-110): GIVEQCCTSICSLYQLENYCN
Chain of Insulin receptor (P06213 763-1382): as the sequence (P06213 763-1382, chain 2 of 2) above

In data set [1] (setting [14]), “ACTGCACCTGGCCTTTAACTUUUCGCACGCGUUGAAUACUACCAUUGAGUCGUAG [HIR_SC]” registered a binding signal (a.u. fluorescence) of 266. In data set [2] (setting [14]), this substance had a binding (delta Fnorm (per mille)) of -1.14.
Turning to “CATGACGCTCACTGTATCTCGCGUUUAACGUAACAGCGAUGUCUCUCAUGAUGUC [HIR-6]”, the binding signal (a.u. fluorescence) is 272 in data set [3]; 45800 and 39500 and 44800 in [1] (setting [15]); 164 in data set [4]. For the same substance, the equilibrium dissociation constant (Kd) – broadly, the free concentration of one partner at which half of the binding sites on the other are occupied at equilibrium, for simple one-to-one binding – came out at 0.306 nM in [5]; 2.25 nM in [7] (after primer nt 1-20 every U = rigidly linked phenyl-dU and every A = flexibly linked indole-dA (nucleotides 1,2), DNA backbone); 0.137 nM in data set [11]. Besides, the Ki (commonly a dissociation constant, usually derived from enzyme kinetics or from competition with a known ligand) in [6] was 68.8 nM. Further, the binding (delta Fnorm (per mille)) in data set [8] is -1.86; in data set [9], 3.56; in data set [2] (setting [15]) it was 38.1; in data set [10], -0.745.
On to “CATGACGCTCACTGTATCTCGCGUUUAACGUAACAGCGAUGUCUCUCAUGAUGUC [HIR-6_V2]”, for which the binding signal (a.u. fluorescence) in data set [1] (setting [16]) stood at 644. The same substance had a binding (delta Fnorm (per mille)) in [2] (setting [16]) of 1.86.
“CATGACGCTCACTGTATCTCGCCUUUAACGUAAGAGCGAUGUCUCUCAUGAUGUC [HIR-8]” showed a binding signal (a.u. fluorescence) in data set [1] (setting [15]) of 34500. In data set [7] (as HIR-6: phenyl-dU (rigid) and indole-dA (flexible) after nt 20), the Kd is 11.7 nM. In addition, the values for the binding (delta Fnorm (per mille)) in data set [9] and in [2] (setting [15]) were -0.562 and 24.8, respectively.
Turning to Insulin receptor (from UniProt P06213), the Kd in [12] is 0.3 nM.
“CATGACGCTCACTGTATCTCGCGUUUAACGUAACAGCGAUGUCUCUCAUGAUGUC [HIR-6_V4]” yielded a binding signal (a.u. fluorescence) in data set [1] (setting [17]) of 195. In addition, in [2] (setting [17]), the binding (delta Fnorm (per mille)) was -1.7.
In turn, “CATGACGCTCACTGTATCTCGCGUUUAACGUAACAGCGAUGUCUCUCAUGAUGUC [HIR-6_V1]” had a binding signal (a.u. fluorescence) in data set [1] (setting [18]) of 742. This substance also returned a binding (delta Fnorm (per mille)) in data set [2] (setting [18]) of -0.274.
In the case of “CATGACGCTCACTGTATCTCGCGUUUAACGUAACAGCGAUGUCUCUCAUGAUGUC [HIR-6_V3]”, the binding signal (a.u. fluorescence) in data set [1] (setting [19]) worked out at 196. Also, the binding (delta Fnorm (per mille)) in data set [2] (setting [19]) is -3.35.
In data set [1] (7-deaza-7-(indolyl-ethyl)-dA (dAAIn) at 32,33,35,39,48,51, 5-(phenyl-ethynyl)-dU (dUEPh) at 31,40,42,44,46,49,52,54), “CATGACGCTCACTGTATCTCGCGTTTAACGUAACAGCGAUGUCUCUCAUGAUGUC [HIR-6_M1]” returned a binding signal (a.u. fluorescence) of 205.
For “CAACTTCTACCGGTCCATGTUUGUGAUGCCGACAGCUAGCAGCAAGUAAACGGUC [DIR-5]”, the Kd in data set [13] amounted to 19.2 nM.
